Source: PMC7508256

Key:
Experiment in all cases: MST
DF2 (YTHDF2) = target: T1, DF2 (YTHDF2) (UniProt Q9Y5A9 1-579)
T1 sequence: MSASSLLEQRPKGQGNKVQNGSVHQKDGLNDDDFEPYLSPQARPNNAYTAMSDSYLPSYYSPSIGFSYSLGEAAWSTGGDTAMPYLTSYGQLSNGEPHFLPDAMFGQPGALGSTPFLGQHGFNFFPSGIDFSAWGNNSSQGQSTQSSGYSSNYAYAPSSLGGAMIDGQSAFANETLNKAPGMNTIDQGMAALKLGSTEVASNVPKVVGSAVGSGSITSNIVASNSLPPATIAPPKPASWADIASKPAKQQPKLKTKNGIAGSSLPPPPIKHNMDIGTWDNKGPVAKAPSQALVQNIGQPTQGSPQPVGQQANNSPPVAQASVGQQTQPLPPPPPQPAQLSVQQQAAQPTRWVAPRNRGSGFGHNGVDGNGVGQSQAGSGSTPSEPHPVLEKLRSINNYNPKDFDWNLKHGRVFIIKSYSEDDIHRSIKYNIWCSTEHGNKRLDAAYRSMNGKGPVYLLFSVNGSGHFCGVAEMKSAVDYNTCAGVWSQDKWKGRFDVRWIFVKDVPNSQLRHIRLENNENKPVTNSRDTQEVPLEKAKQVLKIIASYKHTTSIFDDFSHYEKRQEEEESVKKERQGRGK

DF1 (YTHDF1) = target: T2, DF1 (YTHDF1) (UniProt Q9BYJ9 1-559)
T2 sequence: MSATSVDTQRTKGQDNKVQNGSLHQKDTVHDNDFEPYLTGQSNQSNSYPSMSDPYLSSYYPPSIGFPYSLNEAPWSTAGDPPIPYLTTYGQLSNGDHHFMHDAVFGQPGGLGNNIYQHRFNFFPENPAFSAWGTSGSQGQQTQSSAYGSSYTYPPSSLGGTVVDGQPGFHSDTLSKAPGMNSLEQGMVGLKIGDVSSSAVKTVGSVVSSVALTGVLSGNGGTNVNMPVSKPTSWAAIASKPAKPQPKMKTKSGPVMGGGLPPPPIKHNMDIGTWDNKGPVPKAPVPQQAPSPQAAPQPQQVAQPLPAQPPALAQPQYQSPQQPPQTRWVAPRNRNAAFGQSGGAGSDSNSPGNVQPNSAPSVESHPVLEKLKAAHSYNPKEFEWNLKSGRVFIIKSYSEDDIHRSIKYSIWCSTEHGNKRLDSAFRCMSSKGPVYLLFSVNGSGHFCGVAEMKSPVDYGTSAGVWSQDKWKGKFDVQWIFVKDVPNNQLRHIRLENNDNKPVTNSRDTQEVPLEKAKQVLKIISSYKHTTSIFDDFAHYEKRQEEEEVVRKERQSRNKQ

DF3 (YTHDF3) = target: T3, DF3 (YTHDF3) (UniProt Q7Z739 1-585)
T3 sequence: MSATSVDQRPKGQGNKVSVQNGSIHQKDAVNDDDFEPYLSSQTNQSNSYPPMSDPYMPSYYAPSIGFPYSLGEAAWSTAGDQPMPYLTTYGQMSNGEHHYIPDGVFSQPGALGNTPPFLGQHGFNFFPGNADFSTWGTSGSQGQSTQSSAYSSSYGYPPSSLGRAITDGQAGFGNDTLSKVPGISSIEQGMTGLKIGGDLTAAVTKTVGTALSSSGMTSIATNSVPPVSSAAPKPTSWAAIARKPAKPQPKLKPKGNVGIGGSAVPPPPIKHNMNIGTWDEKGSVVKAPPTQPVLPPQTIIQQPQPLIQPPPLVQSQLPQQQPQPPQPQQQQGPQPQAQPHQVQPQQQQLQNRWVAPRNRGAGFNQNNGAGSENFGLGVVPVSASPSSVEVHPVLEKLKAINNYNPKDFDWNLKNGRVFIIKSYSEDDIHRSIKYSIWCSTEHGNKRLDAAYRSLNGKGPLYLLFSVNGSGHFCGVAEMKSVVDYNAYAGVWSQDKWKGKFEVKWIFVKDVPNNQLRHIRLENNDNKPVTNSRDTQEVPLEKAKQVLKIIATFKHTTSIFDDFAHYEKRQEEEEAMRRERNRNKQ

Measured: binding result

UCCGGACUGU (ssRNA, N6-methyladenosine at position 6) [m6A-modified RNA]
binds: all assays above
